The target in the test is human PVRIG expressed on cells (human) (UniProt Q6DKI7). Description: cell-based or functional assay.

Results on one substance are retold here after patent publication US20240376204A1.

human PVRIG expressed on cells (human), sequence (Q6DKI7 41-326 limits assumed, form in doubt): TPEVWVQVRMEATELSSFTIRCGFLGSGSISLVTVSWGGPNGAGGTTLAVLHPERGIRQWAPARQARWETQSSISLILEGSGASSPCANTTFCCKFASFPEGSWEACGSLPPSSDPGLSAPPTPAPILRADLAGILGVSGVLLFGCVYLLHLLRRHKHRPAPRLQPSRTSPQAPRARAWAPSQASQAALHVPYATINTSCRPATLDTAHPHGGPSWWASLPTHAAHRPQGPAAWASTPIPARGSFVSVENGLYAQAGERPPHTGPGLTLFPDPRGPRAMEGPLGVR

In turn, hIgG4 isotype control (antibody) had an IFNγ, mixed lymphocyte reaction, 20 nM antibody of 74 pg/mL; an IFNγ, mixed lymphocyte reaction, 100 nM antibody of 89 pg/mL; a Killing activity (%) of NK92 on K562, 4 nM antibody of 11.2%; a Killing activity (%) of NK92 on K562, 20 nM antibody of 11.7%. Further, the Killing activity (%) of NK92 on K562, 100 nM antibody came out at 9.2%.
